Measured values as given in article PMC6637868.

Biological target: 6His-CspA (Xanthomonas oryzae pv. oryzae PXO99A, UniProt A0ACG7R7F9 8-71)
Assay: EMSA
Conditions: protein: recombinant; tags: N-terminal His6 (pET-30a-c(+)); label: 3' biotin

Row | Binder | binding result
1 | PXO_RS01060 promoter probe (dsDNA) DNA 1: ATGATGTCGCCCAATCCCTGACCAGATCGATGCGCATGCA DNA 2: TGCATGCGCATCGATCTGGTCAGGGATTGGGCGACATCAT | binds
2 | PXO_RS11830 promoter probe (dsDNA) DNA 1: CTGGCGGACGCCAATAGCGGTTGAATGGGCAAGAGGATCT DNA 2: AGATCCTCTTGCCCATTCAACCGCTATTGGCGTCCGCCAG | binds
